Data as given in paper PMC5074588, “TCS1, a Microtubule-Binding Protein, Interacts with KCBP/ZWICHEL to Regulate Trichome Cell Shape in Arabidopsis thaliana” (PLoS Genetics, 2016).

Target: tubulins (tubulin dimers; paclitaxel-stabilized microtubules)
Test: co-sedimentation; different concentrations of the protein added to paclitaxel-stabilized microtubules (prepolymerized from 8 uM tubulins in Fig 5A, 5 uM in S7 Fig) in PEMT buffer (1 mM MgCl2, 1 mM EGTA, 100 mM PIPES, 20 uM taxol, pH 6.9); 25 C 30 min; 100,000g 30 min; SDS-PAGE, Coomassie
Conditions: both partners purified

Chain of tubulins (tubulin dimers; paclitaxel-stabilized microtubules) (chain, as listed by the source, chain 1 of 2): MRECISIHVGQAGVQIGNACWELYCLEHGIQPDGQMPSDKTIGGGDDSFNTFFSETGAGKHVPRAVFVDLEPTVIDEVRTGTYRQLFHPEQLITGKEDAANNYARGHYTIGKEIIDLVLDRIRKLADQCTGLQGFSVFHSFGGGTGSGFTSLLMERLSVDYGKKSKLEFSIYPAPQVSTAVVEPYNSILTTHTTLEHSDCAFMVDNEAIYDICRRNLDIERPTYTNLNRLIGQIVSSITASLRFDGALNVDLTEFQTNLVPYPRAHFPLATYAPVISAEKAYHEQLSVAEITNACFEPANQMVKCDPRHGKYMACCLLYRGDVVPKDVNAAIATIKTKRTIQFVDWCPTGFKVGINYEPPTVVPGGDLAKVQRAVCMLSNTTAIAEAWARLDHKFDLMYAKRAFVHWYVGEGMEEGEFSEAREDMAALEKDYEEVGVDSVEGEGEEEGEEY
Chain of tubulins (tubulin dimers; paclitaxel-stabilized microtubules) (chain, as listed by the source, chain 2 of 2): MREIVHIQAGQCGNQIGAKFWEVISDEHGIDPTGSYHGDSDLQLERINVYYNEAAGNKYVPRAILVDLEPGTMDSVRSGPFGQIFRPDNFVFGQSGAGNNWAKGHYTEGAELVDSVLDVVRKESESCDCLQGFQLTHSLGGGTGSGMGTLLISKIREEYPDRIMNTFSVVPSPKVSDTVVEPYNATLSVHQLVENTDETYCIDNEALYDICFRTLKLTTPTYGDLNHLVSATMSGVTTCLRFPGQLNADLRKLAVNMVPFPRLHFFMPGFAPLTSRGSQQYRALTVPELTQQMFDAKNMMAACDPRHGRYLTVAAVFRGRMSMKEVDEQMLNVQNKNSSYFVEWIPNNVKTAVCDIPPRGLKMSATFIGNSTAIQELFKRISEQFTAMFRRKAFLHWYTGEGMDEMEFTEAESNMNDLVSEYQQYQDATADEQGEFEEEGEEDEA

B1: MBP-TCS1 (TRICHOME CELL SHAPE 1 fused to maltose binding protein) (natural protein, Arabidopsis thaliana, UniProt Q0WSY2 1-982, looked up)
chain: MDRKSWPWKKKSSEKTATVTEVVDQENGKKPSYIQISFDQYTNLNGLKDEVKSYEEKVTKLEDQIKDLDLKLSTANADIVAKEVLVKQHSKVAEEAVTGWEKAEAEASALKTHLETITLAKLTVEDRAAHLDGALKECMRQIRSLKEENEQKLHDVIATKTNQMDNLRAEFESRIGEYEEELLRCGAENDALSRSLQERSNMLMRISEEKSQAESEIEHLKNNIESCEREINTLKYETHVITKELEIRNEEKNMSMRSAEAANKQHLEGVKKIAKLEAECQRLRTLVRKKLPGPAALAQMKMEVESLGFGDHRQDHRQRRSPVRPSSPLMSPMSHMSQVSEFSLDNMQKFHKENDLLTERLLAMEEETKMLKEALAKRNSELQVSRNLCAKTANRLQTLEAQMMSKSPTKRGFEMPAEIFSRQNASNPPSMASMSEDGNEDARSVAGSLMSELSQSNKDKANAKIKKTESANQLELMDDFLEMEKLACLPNGSNANGSTDHSSADSDAEIPPATQLKKRISNVLQSLPKDAAFEKILAEIQCAVKDAGVKLPSKSHGANLNGLTEEKVIAMSNETTEEKVTIVEVITQELSDALSQIYQFVTYLSKEATACSENRTFSQKVQEFSTTFEGVLGKEKTLVDFLFDLSRVLVEASELKIDVLGFHTSTVEIHSPDCIDKVALPENKALQKDSSGEHYQNGCSQSSDSEIPDDCNGTSGYEPKLATCKFTTEEFEGLKLEKEKAESNLASCEADLEATKTKLQETEKLLAEVKSDLESAQKSNGMGETQLKCMVESYRSLETRSSELEIELTSLKGKIENLEDELHDEKENHREALAKCQELEEQLQRNNQNCPNCSVIEDDPKSKQDNELAAAAEKLAECQETILLLGKQLKSMCPQTEQVASSPSQEQQALNPEEEEYATSTNPQDSKLSSPSDKDTPSMNTMKSPVASKHRHTKSNSSSSSSGLTPEKHSRGFSRFFSTKAK
notes: TCS1, Arabidopsis thaliana, At1g19835, a 982-amino-acid coiled-coil protein; also called MBP-TCS1 fusion protein; source: E. coli Rosetta (DE3); bacterial lysate in the pull-downs
- stoichiometry N: ~0.38 M MBP-TCS1 per mole of tubulin dimers
